We go through one sequence from PMC5913352.

The data set addresses T1, PhoP (non-phosphorylated) (Escherichia coli ExPEC (APEC) FY26 (O2:K1, ST95)?) (UniProt Q8CXZ9).
T1 sequence: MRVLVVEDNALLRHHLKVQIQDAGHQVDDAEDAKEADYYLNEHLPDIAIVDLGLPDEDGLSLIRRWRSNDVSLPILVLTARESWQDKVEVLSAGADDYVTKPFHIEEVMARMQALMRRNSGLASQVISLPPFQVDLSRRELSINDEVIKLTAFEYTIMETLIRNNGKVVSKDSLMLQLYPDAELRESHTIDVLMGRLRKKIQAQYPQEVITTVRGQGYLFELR
Briefly: EMSA.

Take “CAGGACTGAAACGCTTCCTTCATGTTGGTACTGCTATGTCTTGTACACCTCATACGGGGTCGCTAGTTAAGGAAGAGTCTGCTTCATCAGAAACAGGTGAACATTTAGTGGAGTATACGCATTCAAAAGCAACAATAGAATATCTGATGCGTAAGCAGTGTCCTGATTTACCTTTGTTGGTTGCCCGACCATCAATTATT (double strand)”: the binding result is “no binding”.
